From the supplement of paper PMC7877785
± gives the uncertainty stated by the source.

Experiment: self-splicing fitness, log relative to wild type (ln ratio); higher = more splicing; Tetrahymena group I intron in knt gene, E. coli kanamycin selection, DiMSum; sequences stand for … in CUCUCU…GGAGGGAAAAGUUAUCAGGCAUGCACCUGGUAGCUAGUCUUUAAACCAAUAGAUUGCAUCGGUUUAAAAGGCAAGACCGUCAAAUUGCGGGAAAGGGGUCAACAGCCGUUCAGUACCAAGUCUCAGGGGAAACUUUGAGAUGGCCUUGCAAAGGGUAUGGUAAUAAGCUGACGGACAUGGUCCUAACCACGCAGCCAAGUCCUAAGUCAACAGAUCUUCUGUUGAUAUGGAUGCAGUUCACAGACUAAAUGUCGGUCGGGGAAGAUGUAUUCUUCUCAUAAGAUAUAGUCGGACCUCUCCUUAAUGGGAGCUAGCGGAUGAAGUGAUGCAACACUGGAGCCGCUGGGAACUAAUUUGUAUGCGAAAGUAUAUUGAUUAGUUUUGGAGUACUCGUGGUCG
How it was run: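 Six replicate transformations of E. coli BL21(DE3) with a pET-22b(+) library were grown overnight at 37°C or 30°C. The library randomised all eight P1ex-region intron nucleotides, the intron lying in the knt kanamycin-resistance gene, and plates were LB agar with or without 25 μg/mL kanamycin plus 100 μg/mL carbenicillin, 50 μM IPTG and 0.2% rhamnose. Pooled colonies were amplicon-sequenced on an Illumina HiSeq 2500, and fitness is the DiMSum error-weighted combination of wild-type-normalised replicate fold changes, kanamycin versus none.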

Sequence | self-splicing fitness (ln) (30 °C) | self-splicing fitness (ln) (37 °C)
UUCAAGCAAUAUUACGAAAG | -3.65 ± 0.24 | -2.39 ± 0.28
UUCAAGCAAUAUUACGAAUG | -4.12 ± 0.24 | -2.87 ± 0.27
UUCAAGCAAUAUUACGACCA | -1.48 ± 0.31 | -0.352 ± 0.21
UUCAAGCAAUAUUACGACGA | -0.243 ± 0.084 | 0.213 ± 0.084
UUCAAGCAAUAUUACGAGAU | -3.07 ± 0.19 | -2.17 ± 0.18
UUCAAGCAAUAUUACGAGGU | -3.41 ± 0.29 | -1.89 ± 0.23
UUCAAGCAAUAUUACGAUGA | -0.963 ± 0.097 | 0.0199 ± 0.092
UUCAAGCAAUAUUACGAUUC | -2.57 ± 0.15 | -2.22 ± 0.19
UUCAAGCAAUAUUACGCAAU | -2.21 ± 0.19 | -1.99 ± 0.21
UUCAAGCAAUAUUACGCCUU | -1.8 ± 0.13 | -0.968 ± 0.2
UUCAAGCAAUAUUACGCGCA | -0.732 ± 0.13 | 0.264 ± 0.17
UUCAAGCAAUAUUACGCGCC | -0.923 ± 0.17 | -1.38 ± 0.25
UUCAAGCAAUAUUACGCGUU | -2.62 ± 0.12 | -0.189 ± 0.09
UUCAAGCAAUAUUACGGCCC | -1.49 ± 0.17 | -0.618 ± 0.18
UUCAAGCAAUAUUACGGCGG | -0.903 ± 0.076 | -0.416 ± 0.1
UUCAAGCAAUAUUACGGGAU | -3.11 ± 0.13 | -1.4 ± 0.14
UUCAAGCAAUAUUACGGGCU | -3.7 ± 0.21 | -1.81 ± 0.16
UUCAAGCAAUAUUACGGUAC | -2.8 ± 0.2 | -2.71 ± 0.36
UUCAAGCAAUAUUACGGUCG | -0.917 ± 0.1 | -0.62 ± 0.13
UUCAAGCAAUAUUACGGUCU | -2.89 ± 0.16 | -1.97 ± 0.16
UUCAAGCAAUAUUACGGUUA | -0.0762 ± 0.097 | 0.272 ± 0.086
UUCAAGCAAUAUUACGUCGA | -0.383 ± 0.078 | -0.0975 ± 0.087
UUCAAGCAAUAUUACGUGCG | -1.48 ± 0.092 | -0.425 ± 0.088
UUCAAGCAAUAUUACGUGGU | -4.01 ± 0.2 | -2.7 ± 0.17

Sequence | self-splicing fitness (ln) (30 °C) | self-splicing fitness (ln) (37 °C)
UUCAAGCAAUAUUACGUUAA | -1.59 ± 0.11 | -1.47 ± 0.12
UUCAAGCAAUAUUACGUUAC | -3.73 ± 0.36 | -2.72 ± 0.23
UUCAAGCAAUAUUACGUUCU | -2.22 ± 0.14 | -2.14 ± 0.17
UUCAAGCAAUAUUACGUUUU | -3.78 ± 0.17 | -2.65 ± 0.16
UUCCAGCAAUAUUACGAAAG | -2.6 ± 0.27 | -2.33 ± 0.27
UUCCAGCAAUAUUACGAACG | -2.22 ± 0.16 | -0.164 ± 0.15
UUCCAGCAAUAUUACGAGGA | -1.83 ± 0.19 | -0.64 ± 0.22
UUCCAGCAAUAUUACGCAGG | -3.53 ± 0.23 | -2.57 ± 0.36
UUCCAGCAAUAUUACGCAUG | -3.41 ± 0.25 | -1.7 ± 0.16
UUCCAGCAAUAUUACGCAUU | -3.09 ± 0.17 | -0.682 ± 0.11
UUCCAGCAAUAUUACGCCCA | -1.38 ± 0.18 | -0.115 ± 0.17
UUCCAGCAAUAUUACGCCGU | -2.53 ± 0.16 | -1.43 ± 0.23
UUCCAGCAAUAUUACGCGGU | -3.42 ± 0.18 | -2.54 ± 0.2
UUCCAGCAAUAUUACGCUUU | -3.23 ± 0.23 | -0.119 ± 0.12
UUCCAGCAAUAUUACGGAGC | -4.31 ± 0.31 | -2.99 ± 0.47
UUCCAGCAAUAUUACGGCGG | -3.09 ± 0.17 | -2.72 ± 0.27
UUCCAGCAAUAUUACGGGUA | -0.292 ± 0.08 | 0.0398 ± 0.088
UUCCAGCAAUAUUACGGUCC | -1.79 ± 0.15 | -2.18 ± 0.17
UUCCAGCAAUAUUACGUCCU | -2.67 ± 0.21 | -2.29 ± 0.32
UUCCAGCAAUAUUACGUCUA | -0.638 ± 0.082 | 0.0519 ± 0.093
UUCCAGCAAUAUUACGUCUC | -3.17 ± 0.23 | -1.83 ± 0.2
UUCCAGCAAUAUUACGUGAC | -2.56 ± 0.2 | -1.89 ± 0.21
UUCCAGCAAUAUUACGUUCU |  | -3.34 ± 0.31
